# Experimental data reported in patent US20130023004A1 (WASHINGTON UNIVERSITY, published 2013).
# B1: plasma ADAMTS13 (protein)
# chain: AAGGILHLELLVAVGPDVFQAHQEDTERYVLTNLNIGAELLRDPSLGAQFRVHLVKMVILTEPEGAPNITANLTSSLLSVCGWSQTINPEDDTDPGHADLVLYITRFDLELPDGNRQVRGVTQLGGACSPTWSCLITEDTGFDLGVTIAHEIGHSFGLEHDGAPGSGCGPSGHVMASDGAAPRAGLAWSPCSRRQLLSLLSAGRARCVWDPPRPQPGSAGHPPDAQPGLYYSANEQCRVAFGPKAVACTFAREHLDMCQALSCHTDPLDQSSCSRLLVPLLDGTECGVEKWCSKGRCRSLVELTPIAAVHGRWSSWGPRSPCSRSCGGGVVTRRRQCNNPRPAFGGRACVGADLQAEMCNTQACEKTQLEFMSQQCARTDGQPLRSSPGGASFYHWGAAVPHSQGDALCRHMCRAIGESFIMKRGDSFLDGTRCMPSGPREDGTLSLCVSGSCRTFGCDGRMDSQQVWDRCQVCGGDNSTCSPRKGSFTAGRAREYVTFLTVTPNLTSVYIANHRPLFTHLAVRIGGRYVVAGKMSISPNTTYPSLLEDGRVEYRVALTEDRLPRLEEIRIWGPLQEDADIQVYRRYGEEYGNLTRPDITFTYFQPKPRQAWVWAAVRGPCSVSCGAGLRWVNYSCLDQARKELVETVQCQGSQQPPAWPEACVLEPCPPYWAVGDFGPCSASCGGGLRERPVRCVEAQGSLLKTLPPARCRAGAQQPAVALETCNPQPCPARWEVSEPSSCTSAGGAGLALENETCVPGADGLEAPVTEGPGSVDEKLPAPEPCVGMSCPPGWGHLDATSAGEKAPSPWGSIRTGAQAAHVWTPAAGSCSVSCGRGLMELRFLCMDSALRVPVQEELCGLASKPGSRREVCQAVPCPARWQYKLAACSVSCGRGVVRRILYCARAHGEDDGEEILLDTQCQGLPRPEPQEACSLEPCPPRWKVMSLGPCSASCGLGTARRSVACVQLDQGQDVEVDEAACAALVRPEASVPCLIADCTYRWHVGTWMECSVSCGDGIQRRRDTCLGPQAQAPVPADFCQHLPKPVTVRGCWAGPCVGQGTPSLVPHEEAAAPGRTTATPAGASLEWSQARGLLFSPAPQPRRLLPGPQENSVQSSACGRQHLEPTGTIDMRGPGQADCAVAIGRPLGEVVTLRVLESSLNCSAGDMLLLWGRLTWRKMCRKLLDMTFSSKTNTLVVRQRCGRPGGGVLLRYGSQLAPETFYRECDMQLFGPWGEIVSPSLSPATSNAGGCRLFINVAPHARIAIHALATNMGAGTEGANASYILIRDTHSLRTTAFHGQQVLYWESESSQAEMEFSEGFLKAQASLRGQYWTLQSWVPEMQDPQSWKGKEGT
# B2: recombinant ADAMTS13 MDTCS (protein)
# chain: AAGGILHLELLVAVGPDVFQAHQEDTERYVLTNLNIGAELLRDPSLGAQFRVHLVKMVILTEPEGAPNITANLTSSLLSVCGWSQTINPEDDTDPGHADLVLYITRFDLELPDGNRQVRGVTQLGGACSPTWSCLITEDTGFDLGVTIAHEIGHSFGLEHDGAPGSGCGPSGHVMASDGAAPRAGLAWSPCSRRQLLSLLSAGRARCVWDPPRPQPGSAGHPPDAQPGLYYSANEQCRVAFGPKAVACTFAREHLDMCQALSCHTDPLDQSSCSRLLVPLLDGTECGVEKWCSKGRCRSLVELTPIAAVHGRWSSWGPRSPCSRSCGGGVVTRRRQCNNPRPAFGGRACVGADLQAEMCNTQACEKTQLEFMSQQCARTDGQPLRSSPGGASFYHWGAAVPHSQGDALCRHMCRAIGESFIMKRGDSFLDGTRCMPSGPREDGTLSLCVSGSCRTFGCDGRMDSQQVWDRCQVCGGDNSTCSPRKGSFTAGRAREYVTFLTVTPNLTSVYIANHRPLFTHLAVRIGGRYVVAGKMSISPNTTYPSLLEDGRVEYRVALTEDRLPRLEEIRIWGPLQEDADIQVYRRYGEEYGNLTRPDITFTYFQPKPRQA
# B3: FRETS-rVWF71 (peptide)
# peptide: GQAPNLVYMVTGCPASDEIRRLPGDIQVVPIGVGPNANVQELERIGWPNAPILIQDFETLPREAPDLVLQR
# modifications: Cys1610 modified with DyLight 633 (maleimide); N-terminal Gly modified with IRDye QC-1 (N-hydroxysuccinimidyl ester)
# notes: Fluorogenic substrate; Recombinant peptide rVWF71 (extra N-terminal Gly = E1598G, N1610C, K1617R) labelled with fluorophore and quencher; also called VWF-rFRETS71; doubly-labeled substrate
# Experiments:
# plasma ADAMTS13 (human) = plasma ADAMTS13 (human) (UniProt Q76LX8); test: cell-based or functional assay
# FRETS-rVWF71 = molecular target: T1, FRETS-rVWF71
# T1 chain: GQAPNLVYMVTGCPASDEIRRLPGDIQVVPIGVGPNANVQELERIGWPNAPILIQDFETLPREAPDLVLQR
# plasma ADAMTS13 = molecular target: T2, plasma ADAMTS13 (human, UniProt Q76LX8 75-1427); test: Michaelis-Menten kinetics of substrate cleavage by plasma ADAMTS13 (fluorescence)
# T2 construct: Not purified; enzyme source was plasma (about 6 nM ADAMTS13 in PNP by a literature value); also called ADAMTS13 in PNP (pooled normal plasma)
# T2 sequence (looked up): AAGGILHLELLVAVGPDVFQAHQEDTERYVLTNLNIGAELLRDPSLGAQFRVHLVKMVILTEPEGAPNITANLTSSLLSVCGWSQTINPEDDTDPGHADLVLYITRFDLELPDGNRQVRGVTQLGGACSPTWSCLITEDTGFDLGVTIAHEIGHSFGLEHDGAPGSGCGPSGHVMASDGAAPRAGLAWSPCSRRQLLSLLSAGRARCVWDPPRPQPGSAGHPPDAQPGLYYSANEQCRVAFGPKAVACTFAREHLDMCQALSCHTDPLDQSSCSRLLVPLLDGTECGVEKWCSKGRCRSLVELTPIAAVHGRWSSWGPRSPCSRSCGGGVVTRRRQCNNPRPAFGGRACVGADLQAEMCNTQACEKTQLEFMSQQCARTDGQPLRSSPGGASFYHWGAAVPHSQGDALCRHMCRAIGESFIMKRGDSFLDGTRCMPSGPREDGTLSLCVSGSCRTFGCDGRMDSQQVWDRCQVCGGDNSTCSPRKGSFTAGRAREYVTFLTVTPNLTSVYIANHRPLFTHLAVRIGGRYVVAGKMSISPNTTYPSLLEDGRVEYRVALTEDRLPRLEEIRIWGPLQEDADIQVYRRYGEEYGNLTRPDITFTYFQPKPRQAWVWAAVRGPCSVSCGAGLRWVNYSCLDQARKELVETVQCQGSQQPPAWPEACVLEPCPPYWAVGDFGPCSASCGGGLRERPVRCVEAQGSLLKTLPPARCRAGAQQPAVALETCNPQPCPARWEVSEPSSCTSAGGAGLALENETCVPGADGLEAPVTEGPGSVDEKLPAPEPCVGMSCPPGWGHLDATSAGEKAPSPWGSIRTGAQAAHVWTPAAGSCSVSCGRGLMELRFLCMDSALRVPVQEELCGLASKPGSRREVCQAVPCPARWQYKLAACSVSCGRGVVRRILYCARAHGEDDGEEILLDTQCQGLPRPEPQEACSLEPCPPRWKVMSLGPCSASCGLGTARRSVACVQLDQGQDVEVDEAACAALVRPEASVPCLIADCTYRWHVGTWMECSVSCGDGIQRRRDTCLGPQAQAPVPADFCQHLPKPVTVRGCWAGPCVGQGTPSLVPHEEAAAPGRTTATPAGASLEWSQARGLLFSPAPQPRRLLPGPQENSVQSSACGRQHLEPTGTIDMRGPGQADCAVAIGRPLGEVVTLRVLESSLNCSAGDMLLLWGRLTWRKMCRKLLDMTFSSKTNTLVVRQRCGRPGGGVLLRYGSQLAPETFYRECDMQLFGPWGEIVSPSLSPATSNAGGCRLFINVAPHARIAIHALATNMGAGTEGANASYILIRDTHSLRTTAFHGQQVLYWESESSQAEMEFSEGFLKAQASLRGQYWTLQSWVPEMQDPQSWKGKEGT
# Method: In these experiments, FRETS-rVWF71 cleavage by plasma ADAMTS13 (50 μL) was assessed in 200 μL reactions containing 50 mM HEPES, pH 7.4, 10 mM CaCl₂, 150 mM NaCl, and 0.05% Tween-20, and varying concentrations of FRETS-rVWF71. The concentration of ADAMTS13 in PNP is ˜1.03 μg/ml (Feys, H. B., et al. J. Thromb. Haemost 4:955-62, 2006), or ˜6 nM for a molecular mass of 170 kDa. For each concentration of substrate, the relationship between product fluorescence and concentration was determined directly by cleaving FRETS-rVWF71 to completion with excess recombinant ADAMTS13 MDTCS (Feys, H. B., et al. J. Thromb. Haemost. 7:2088-95, 2009) and measuring the fluorescence. Control assays contained plasma that was completely deficient in ADAMTS13. The initial velocities (nM/min) as a function of substrate concentration were fitted to the Michealis-Menten equation by nonlinear regression analysis (Prism, GraphPad).
molecule,measurement,setting,value
Hemoglobin (from UniProt P69905 2-142; P68871 2-147),IC50 of inhibition of ADAMTS13 activity (FRETS-rVWF71 cleavage),plasma ADAMTS13 (human),10 to 15 mg/mL
B1,Km,FRETS-rVWF71,Km of 1.8 µM
same,kcat,FRETS-rVWF71,kcat of 6.8 min^-1 at 30 °C
B2,cleavage of the substrate (fluorescence),FRETS-rVWF71,cleaving FRETS-rVWF71 to completion with excess recombinant ADAMTS13 MDTCS
B3,binding result,plasma ADAMTS13,binds
